According to US20210171647A1:

B1: BMK10 (antibody, from another filing, V domains shown)
VH: EVQLVQSGAEVKKPGASVKVSCKASGYTFTDSYMSWVRQAPGQGLEWIGDMYPDNGDSSYNQKFRERVTITRDTSTSTAYLELSSLRSEDTAVYYCVLAPRWYFSVWGQGTLVTVSS
VL: DIQMTQSPSSLSASVGDRVTITCRASQDISNYLNWYQQKPGKAPKLLIYYTSRLRSGVPSRFSGSGSGTDFTLTISSLQPEDFATYYCQQGHTLPPTFGQGTKVEIK
B2: 1.214.23-u1-IgG1K (antibody, V domains shown)
VH: QVQLQESGPGLVKPSGTLSLTCVVSGGSISNRNWWSWVRQPPGKGLEWIGEIFHSGNTNYNPSLKSRVTISVDKSKNQFSLKVNSVTAADTAVYYCAKSFAVALDSWGQGTLVTVSS
VL: DIQLTQSPSFLSASVGDRVTITCRASQDINSYLAWCQQKPGKAPKLLIYAASSLQSGVPSRFSGTGSGTEFTLTISSLQPEDFATYYCQQLFSYPITFGQGTRLEIK
B3: 1.134.9-u1-IgG1L (antibody, V domains shown)
VH: QVQLQESGPGLVKPSGTLSLTCAVSGGSISSYNWWSWVRQPPGKGLEWIGEIYHGGNTNYNPSLKSRVTMSVDNSKNQFSLKLSSVTAADTAVYYCARAPGDWGGSPYFDFWGQGTLVTVSS
VL: SSELTQDPAVSVALGQTVRITCQGDNLRTYYASWYQQKPGQAPILLIYGRNKRPSGIPDRFSGSSSGNTASLTITGAQAEDEAAYYCNSRDSSGNPVVFGGGTKLTVL

Key:
[1] = molecular target: human OX40 extracellular domain (ECD) protein (human) (UniProt P43489); assay: SPR, Biacore T200, antibody captured, OX40 as analyte
Sequence of human OX40 extracellular domain (ECD) protein (human) (P43489 29-214): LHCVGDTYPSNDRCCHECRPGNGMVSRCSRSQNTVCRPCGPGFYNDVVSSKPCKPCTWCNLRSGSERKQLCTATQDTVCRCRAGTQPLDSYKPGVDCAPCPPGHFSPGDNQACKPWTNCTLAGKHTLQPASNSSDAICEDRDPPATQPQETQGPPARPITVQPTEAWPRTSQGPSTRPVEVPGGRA

[2] = molecular target: human OX40, full-length, on cells (human) (UniProt P43489); assay: flow cytometry on activated human CD4+ T cells
Sequence of human OX40, full-length, on cells (human) (P43489 29-277): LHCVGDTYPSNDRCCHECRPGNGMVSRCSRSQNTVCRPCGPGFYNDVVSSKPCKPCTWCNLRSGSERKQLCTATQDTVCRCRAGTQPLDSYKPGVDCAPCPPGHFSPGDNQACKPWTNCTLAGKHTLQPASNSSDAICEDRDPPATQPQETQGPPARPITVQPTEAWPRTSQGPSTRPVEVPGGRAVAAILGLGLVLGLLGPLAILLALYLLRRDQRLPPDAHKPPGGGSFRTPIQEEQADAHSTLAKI

[3] = molecular target: human OX40 extracellular domain (ECD) protein (human) (UniProt P43489); assay: competition ELISA: human OX40 ECD coated, antibody titrated in a mix with a constant concentration of OX40L, bound OX40L detected at OD450
[4] = molecular target: human OX40, full-length, on cells (human) (UniProt P43489); assay: flow cytometry, MFI against antibody concentration; neither the legend nor paragraph 266 names the cells, target taken as cell-surface human OX40 because the antibodies are anti-OX40
[5] = molecular target: human OX40, full-length, on cells (human) (UniProt P43489); assay: flow cytometry, CHO-K1 cells expressing human OX40, MESF beads
[6] = molecular target: human OX40 extracellular domain (ECD) protein (human) (UniProt P43489); assay: epitope binning by competition against labelled BMK10 on human OX40 (self-competition control); the antibody named in the legend box is titrated; the text describes an ELISA, the axis on the sheet reads MFI
[7] = molecular target: mouse OX40 (mPro1) on transfected 293F cells (mouse) (UniProt P47741); assay: FACS, transfected 293F cells, antibody 2 ug/mL
Sequence of mouse OX40 (mPro1) on transfected 293F cells (mouse) (P47741 20-272): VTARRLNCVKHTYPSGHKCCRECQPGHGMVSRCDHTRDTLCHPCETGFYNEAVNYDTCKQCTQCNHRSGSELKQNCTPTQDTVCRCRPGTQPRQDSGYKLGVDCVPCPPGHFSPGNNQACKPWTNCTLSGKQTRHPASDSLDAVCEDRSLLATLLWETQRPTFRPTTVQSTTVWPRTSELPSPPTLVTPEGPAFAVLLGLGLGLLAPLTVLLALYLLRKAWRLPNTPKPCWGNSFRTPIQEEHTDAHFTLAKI

[8] = molecular target: human OX40, full-length, on cells (human) (UniProt P43489); assay: FACS, transfected 293F cells, antibody 2 ug/mL
[9] = molecular target: human CD40 (hPro40) on transfected 293F cells (human) (UniProt P25942); assay: FACS, transfected 293F cells, antibody 2 ug/mL
Sequence of human CD40 (hPro40) on transfected 293F cells (human) (P25942 21-277): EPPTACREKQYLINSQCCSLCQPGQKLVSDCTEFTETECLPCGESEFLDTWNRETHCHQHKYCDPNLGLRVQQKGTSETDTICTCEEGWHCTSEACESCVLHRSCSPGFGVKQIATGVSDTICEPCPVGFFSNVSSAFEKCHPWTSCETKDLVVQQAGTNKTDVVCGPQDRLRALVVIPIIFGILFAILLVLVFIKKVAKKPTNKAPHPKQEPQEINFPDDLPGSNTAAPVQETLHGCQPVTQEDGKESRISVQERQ

[10] = molecular target: human OX40, full-length, on cells (human) (UniProt P43489); assay: flow cytometry on human OX40 transfected CHO-K1 cells
[11] = molecular target: xPro1.FL-x10: CRDmox40_1,2,4 (human; mouse) (UniProt P47741); assay: FACS, transfected 293F cells, antibody 1 ug/mL
[12] = molecular target: xPro1.FL-x1: CRDmox40_1 (human; mouse) (UniProt P47741); assay: FACS, transfected 293F cells, antibody 1 ug/mL
[13] = molecular target: xPro1.FL-x9: CRDmox40_2-4 (human; mouse) (UniProt P43489); assay: FACS, transfected 293F cells, antibody 1 ug/mL
Sequence of xPro1.FL-x9: CRDmox40_2-4 (human; mouse) (P43489 other isoform, or with tags, fused parts or gaps, form in doubt): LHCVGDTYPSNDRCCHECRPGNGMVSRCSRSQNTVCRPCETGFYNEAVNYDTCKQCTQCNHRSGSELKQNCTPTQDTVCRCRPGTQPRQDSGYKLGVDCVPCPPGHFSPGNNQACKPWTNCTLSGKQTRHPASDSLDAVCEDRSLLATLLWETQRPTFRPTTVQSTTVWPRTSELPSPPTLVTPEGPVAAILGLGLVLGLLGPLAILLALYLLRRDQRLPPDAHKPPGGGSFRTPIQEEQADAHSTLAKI

[14] = molecular target: xPro1.FL-x3: CRDmox40_3 (human; mouse) (UniProt P43489); assay: FACS, transfected 293F cells, antibody 1 ug/mL
Sequence of xPro1.FL-x3: CRDmox40_3 (human; mouse) (P43489 other isoform, or with tags, fused parts or gaps, form in doubt): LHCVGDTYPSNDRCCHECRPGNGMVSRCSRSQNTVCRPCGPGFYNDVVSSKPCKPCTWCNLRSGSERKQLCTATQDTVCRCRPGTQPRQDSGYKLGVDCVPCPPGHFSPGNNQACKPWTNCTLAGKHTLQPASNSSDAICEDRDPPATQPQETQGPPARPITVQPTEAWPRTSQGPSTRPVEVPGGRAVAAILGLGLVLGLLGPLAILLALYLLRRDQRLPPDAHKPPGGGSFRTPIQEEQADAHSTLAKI

[15] = molecular target: xPro1.FL-x7: CRDmox40_3-4 (human; mouse) (UniProt P43489); assay: FACS, transfected 293F cells, antibody 1 ug/mL
Sequence of xPro1.FL-x7: CRDmox40_3-4 (human; mouse) (P43489 other isoform, or with tags, fused parts or gaps, form in doubt): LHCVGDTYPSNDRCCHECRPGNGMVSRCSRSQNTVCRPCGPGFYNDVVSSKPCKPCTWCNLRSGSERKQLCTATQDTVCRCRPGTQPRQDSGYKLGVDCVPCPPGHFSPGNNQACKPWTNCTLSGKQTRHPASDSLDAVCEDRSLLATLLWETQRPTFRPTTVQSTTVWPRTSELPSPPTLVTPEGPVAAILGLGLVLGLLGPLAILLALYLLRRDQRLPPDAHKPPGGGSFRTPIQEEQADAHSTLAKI

[16] = molecular target: xPro1.FL-x11: CRDmox40_1,3,4 (human; mouse) (UniProt P47741); assay: FACS, transfected 293F cells, antibody 1 ug/mL
[17] = molecular target: xPro1.FL-x8: CRDmox40_1-3 (human; mouse) (UniProt P47741); assay: FACS, transfected 293F cells, antibody 1 ug/mL
[18] = molecular target: xPro1.FL-x6: CRDmox40_2-3 (human; mouse) (UniProt P43489); assay: FACS, transfected 293F cells, antibody 1 ug/mL
Sequence of xPro1.FL-x6: CRDmox40_2-3 (human; mouse) (P43489 other isoform, or with tags, fused parts or gaps, form in doubt): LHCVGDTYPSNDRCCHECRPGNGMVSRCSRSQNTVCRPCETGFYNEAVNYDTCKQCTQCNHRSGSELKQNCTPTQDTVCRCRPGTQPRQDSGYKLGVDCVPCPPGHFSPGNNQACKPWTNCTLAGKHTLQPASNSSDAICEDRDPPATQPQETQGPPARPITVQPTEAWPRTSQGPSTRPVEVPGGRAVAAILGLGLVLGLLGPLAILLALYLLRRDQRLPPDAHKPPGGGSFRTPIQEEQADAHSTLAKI

[19] = molecular target: xPro1.FL-x5: CRDmox40_1-2 (human; mouse) (UniProt P47741); assay: FACS, transfected 293F cells, antibody 1 ug/mL
[20] = molecular target: xPro1.FL.x2: CRDmox40_2 (human; mouse) (UniProt P43489); assay: FACS, transfected 293F cells, antibody 1 ug/mL
Sequence of xPro1.FL.x2: CRDmox40_2 (human; mouse) (P43489 other isoform, or with tags, fused parts or gaps, form in doubt): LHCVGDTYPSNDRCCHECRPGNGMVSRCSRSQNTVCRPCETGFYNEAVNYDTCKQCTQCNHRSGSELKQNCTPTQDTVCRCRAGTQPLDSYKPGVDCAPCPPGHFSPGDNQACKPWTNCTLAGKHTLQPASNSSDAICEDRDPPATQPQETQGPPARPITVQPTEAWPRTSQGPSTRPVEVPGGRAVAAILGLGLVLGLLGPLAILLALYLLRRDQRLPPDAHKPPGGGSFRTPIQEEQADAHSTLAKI

[21] = molecular target: xPro1.FL-x4: CRDmox40_4 (human; mouse) (UniProt P43489); assay: FACS, transfected 293F cells, antibody 1 ug/mL
Sequence of xPro1.FL-x4: CRDmox40_4 (human; mouse) (P43489 other isoform, or with tags, fused parts or gaps, form in doubt): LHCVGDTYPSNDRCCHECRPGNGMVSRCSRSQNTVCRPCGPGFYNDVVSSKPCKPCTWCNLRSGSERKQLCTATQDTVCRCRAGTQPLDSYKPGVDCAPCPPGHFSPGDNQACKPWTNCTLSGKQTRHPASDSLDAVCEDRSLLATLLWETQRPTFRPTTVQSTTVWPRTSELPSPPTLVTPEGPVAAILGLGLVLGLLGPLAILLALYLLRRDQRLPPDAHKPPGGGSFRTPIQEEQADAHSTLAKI

Row | Binder | MFI [11] | PE + % [11] [%] | MFI [12] | PE + % [12] [%] | MFI [13] | PE + % [13] [%] | MFI [14] | PE + % [14] [%] | MFI [15] | PE + % [15] [%] | MFI [16] | PE + % [16] [%] | MFI [17] | PE + % [17] [%] | MFI [18] | PE + % [18] [%] | MFI [19] | PE + % [19] [%] | MFI [20] | PE + % [20] [%] | also measured
1 | B1 |  |  |  |  |  |  |  |  |  |  |  |  |  |  |  |  |  |  |  |  | kon [1]: 442000 M⁻¹ s⁻¹; EC50 (read off the curve) [2]: 0.7 nM; IC50 (read off the curve) [3]: 3 nM; EC50 (read off the curve) [4]: 0.8 nM; Kd [5]: 0.23 nM; IC50 (read off the curve) [6]: 6 nM; MFI [7]: 5000; PE + % [7]: 91.6%; MFI [8]: 27600; PE + % [8]: 98.3%; MFI [9]: 28.8; PE + % [9]: 0.068%; EC50 (read off the curve) [10]: 0.6 nM
2 | B2 | 19600 | 94.4 | 5420 | 82.9 | 80.1 | 0.244 | 2250 | 70 | 6540 | 81.5 | 6260 | 70.8 | 42.6 | 0.743 | 113 | 2.31 | 21700 | 96.5 | 23300 | 92.8 | MFI [21]: 23200; PE + % [21]: 97.7%
3 | B3 | 42.7 | 0.624 | 6440 | 75.3 | 44.1 | 0.668 | 3800 | 66.1 | 9160 | 80.3 | 9400 | 74 | 43.2 | 0.678 | 211 | 6.75 | 61 | 1.73 | 49.5 | 0.904 | MFI [21]: 24100; PE + % [21]: 96.6%
